{"source": "paper PMC7811009", "about": "“Oxytocin modulates local topography of human functional connectome in healthy men at rest” (Communications Biology, 2021)", "origin": "cited, not measured here", "key": {"[1]": {"details": "rhesus monkeys, cited from earlier work", "text": "Our findings support our previous observations that increases in oxytocin in systemic circulation cannot fully account for the changes in rCBF observed after intranasal oxytocin[11] and lend support to the contribution of nose-to-brain pathways to the effects of intranasal oxytocin on brain function. However, they cannot highlight the precise mechanisms of transport underlying its functional effects. We believe that most evidence to date concurs on the idea that oxytocin, when administered intranasally, may diffuse from the olfactory and respiratory epithelia in the middle and upper poster ..."}, "[2]": {"details": "intravenous infusion, primates; cited from earlier work", "text": "It is not yet clear which precise mechanisms mediate the effects of intravenous oxytocin on brain function. […] At least three mechanisms have been postulated. First, it is possible that the direct peripheral effects of oxytocin on oxytocin receptors expressed in vegetative territories, such as the heart, may be an indirect source of changes in the brain."}}, "data": [{"substance": "labelled synthetic oxytocin: labelled synthetic oxytocin given intravenously or intranasally to primates / rhesus monkeys in cited studies", "values": [{"measurement": "Brain regions reached", "setting": "[1]; administered intranasally", "value": "reaches several brain regions (orbitofrontal cortex, striatum, thalamus and brainstem)"}, {"measurement": "Labelled oxytocin in brain regions (orbitofrontal cortex, striatum, thalamus and brainstem)", "setting": "[1]; same doses administered intravenously", "value": "No detectable amounts"}, {"measurement": "Synthetic oxytocin levels in the CSF", "setting": "[2]", "value": "increased synthetic oxytocin levels in the CSF"}]}]}
